# B1: AM1 scDb (bispecific antibody)
# chain: DIRVTQSPSSLSASVGDRVTITCRADVHIYWYLNWYQQKPGKAPKLLIYAASSLQSGVPSRFSGSGSGTDFTLTISSLQPEDFATYYCQQSYSTPYTFGQGTKLEIKGGGGSEVQLQQSGPELVKPGASMKISCKASGYSFTGYTMNWVKQSHGKNLEWMGLINPYKGVSTYNQKFKDKATLTVDKSSSTAYMELLSLTSEDSAVYYCARSGYYGDSDWYFDVWGAGTTVTVSSGGGGSGGGGSGGGGSDIQMTQTTSSLSASLGDRVTISCRASQDIRNYLNWYQQKPDGTVKLLIYYTSRLHSGVPSKFSGSGSGTDYSLTISNLEQEDIATYFCQQGNTLPWTFAGGTKLEIKGGGGSQVQLVQSGAEVKKPGASVKVSCKVSGYTLTELSMHWVRQAPGKGLEWMGGFDPEDGETIYAQKFQGRVTMTEDTSTDTAYMELSSLRSEDTAVYYCATDQGSSWGFYWGQGTLVTVSS
# notes: VLA-VHB-VLB-VHA, anti-CD3 UCHT1
# B2: AMC3 scDb (bispecific antibody)
# chain: DIRVTQSPSSLSASVGDRVTITCRASQNIMWYLNWYQQKPGKAPKLLIYAASSLQSGVPSRFSGSGSGTDFTLTISSLQPEDFATYYCQQSYSTPYTFGQGTKLEIKGGGGSEVQLQQSGPELVKPGASMKISCKASGYSFTGYTMNWVKQSHGKNLEWMGLINPYKGVSTYNQKFKDKATLTVDKSSSTAYMELLSLTSEDSAVYYCARSGYYGDSDWYFDVWGAGTTVTVSSGGGGSGGGGSGGGGSDIQMTQTTSSLSASLGDRVTISCRASQDIRNYLNWYQQKPDGTVKLLIYYTSRLHSGVPSKFSGSGSGTDYSLTISNLEQEDIATYFCQQGNTLPWTFAGGTKLEIKGGGGSQVQLVQSGAEVKKPGASVKVSCKVSGPKLYEVSMHWVRQAPGKGLEWMGGFDPEDGETIYAQKFQGRVTMTEDTSTDTAYMELSSLRSEDTAVYYCATDQGASWGFYWGQGTLVTVSS
# notes: as m68
# B3: AMC4 scDb (bispecific antibody)
# chain: DIRVTQSPSSLSASVGDRVTITCRADHHIFWYLNWYQQKPGKAPKLLIYAASSLQSGVPSRFSGSGSGTDFTLTISSLQPEDFATYYCQQSYSTPYTFGQGTKLEIKGGGGSEVQLQQSGPELVKPGASMKISCKASGYSFTGYTMNWVKQSHGKNLEWMGLINPYKGVSTYNQKFKDKATLTVDKSSSTAYMELLSLTSEDSAVYYCARSGYYGDSDWYFDVWGAGTTVTVSSGGGGSGGGGSGGGGSDIQMTQTTSSLSASLGDRVTISCRASQDIRNYLNWYQQKPDGTVKLLIYYTSRLHSGVPSKFSGSGSGTDYSLTISNLEQEDIATYFCQQGNTLPWTFAGGTKLEIKGGGGSQVQLVQSGAEVKKPGASVKVSCKVSGPKLYEVSMHWVRQAPGKGLEWMGGFDPEDGETIYAQKFQGRVTMTEDTSTDTAYMELSSLRSEDTAVYYCATDQGASWGFYWGQGTLVTVSS
# notes: as m68
# B4: AMC5 scDb (bispecific antibody)
# chain: DIRVTQSPSSLSASVGDRVTITCRADIDIRWYLNWYQQKPGKAPKLLIYAASSLQSGVPSRFSGSGSGTDFTLTISSLQPEDFATYYCQQSYSTPYTFGQGTKLEIKGGGGSEVQLQQSGPELVKPGASMKISCKASGYSFTGYTMNWVKQSHGKNLEWMGLINPYKGVSTYNQKFKDKATLTVDKSSSTAYMELLSLTSEDSAVYYCARSGYYGDSDWYFDVWGAGTTVTVSSGGGGSGGGGSGGGGSDIQMTQTTSSLSASLGDRVTISCRASQDIRNYLNWYQQKPDGTVKLLIYYTSRLHSGVPSKFSGSGSGTDYSLTISNLEQEDIATYFCQQGNTLPWTFAGGTKLEIKGGGGSQVQLVQSGAEVKKPGASVKVSCKVSGPKLYEVSMHWVRQAPGKGLEWMGGFDPEDGETIYAQKFQGRVTMTEDTSTDTAYMELSSLRSEDTAVYYCATDQGASWGFYWGQGTLVTVSS
# notes: as m68
# B5: AMC7 scDb (bispecific antibody)
# chain: DIRVTQSPSSLSASVGDRVTITCRASQNIMWYLNWYQQKPGKAPKLLIYAASSLQSGVPSRFSGSGSGTDFTLTISSLQPEDFATYYCQQSYSTPYTFGQGTKLEIKGGGGSEVQLQQSGPELVKPGASMKISCKASGYSFTGYTMNWVKQSHGKNLEWMGLINPYKGVSTYNQKFKDKATLTVDKSSSTAYMELLSLTSEDSAVYYCARSGYYGDSDWYFDVWGAGTTVTVSSGGGGSGGGGSGGGGSDIQMTQTTSSLSASLGDRVTISCRASQDIRNYLNWYQQKPDGTVKLLIYYTSRLHSGVPSKFSGSGSGTDYSLTISNLEQEDIATYFCQQGNTLPWTFAGGTKLEIKGGGGSQVQLVQSGAEVKKPGASVKVSCKVSGPKLYEVSMHWVRQAPGKGLEWMGGFDPEDGETIYAQKFQGRVTMTEDTSTDTAYMELSSLRSEDTAVYYCATDQGSSWGFYWGQGTLVTVSS
# notes: as m68
# B6: AMC10 scDb (bispecific antibody)
# chain: DIQLTQSPSSLSASVGDRVTITCRASQNIMWYLNWYQQKPGKAPKLLIYAASGLQSGVPSRFSGSGSGTDFTLTISSLQPEDFATYYCQQSYSTPFTFGPGTKVDIKGGGGSEVQLQQSGPELVKPGASMKISCKASGYSFTGYTMNWVKQSHGKNLEWMGLINPYKGVSTYNQKFKDKATLTVDKSSSTAYMELLSLTSEDSAVYYCARSGYYGDSDWYFDVWGAGTTVTVSSGGGGSGGGGSGGGGSDIQMTQTTSSLSASLGDRVTISCRASQDIRNYLNWYQQKPDGTVKLLIYYTSRLHSGVPSKFSGSGSGTDYSLTISNLEQEDIATYFCQQGNTLPWTFAGGTKLEIKGGGGSQVQLVQSGAEVKKPGASVKVSCKVSGYTLTELSMHWVRQAPGKGLEWMGGFDPEDGETIYAQKFQGRVTMTEDTSTDTAYMELSSLRSEDTAVYYCATDQGSSWGFYWGQGTLVTVSS
# notes: as m68
# B7: AMC12 scDb (bispecific antibody)
# chain: DIRVTQSPSSLSASVGDRVTITCRASQNIMWYLNWYQQKPGKAPKLLIYAASSLQSGVPSRFSGSGSGTDFTLTISSLQPEDFATYYCQQAYRIPYTFGQGTKLEIKGGGGSEVQLQQSGPELVKPGASMKISCKASGYSFTGYTMNWVKQSHGKNLEWMGLINPYKGVSTYNQKFKDKATLTVDKSSSTAYMELLSLTSEDSAVYYCARSGYYGDSDWYFDVWGAGTTVTVSSGGGGSGGGGSGGGGSDIQMTQTTSSLSASLGDRVTISCRASQDIRNYLNWYQQKPDGTVKLLIYYTSRLHSGVPSKFSGSGSGTDYSLTISNLEQEDIATYFCQQGNTLPWTFAGGTKLEIKGGGGSQVQLVQSGAEVKKPGASVKVSCKVSGPKLYEVSMHWVRQAPGKGLEWMGGFDPEDGETIYAQKFQGRVTMTEDTSTDTAYMELSSLRSEDTAVYYCATDQGASWGFYWGQGTLVTVSS
# notes: as m68
# B8: AMC14 scDb (bispecific antibody)
# chain: DIRVTQSPSSLSASVGDRVTITCRASQNIMWYLNWYQQKPGKAPKLLIYAASSLQSGVPSRFSGSGSGTDFTLTISSLQPEDFATYYCQQAYRIPYTFGQGTKLEIKGGGGSEVQLQQSGPELVKPGASMKISCKASGYSFTGYTMNWVKQSHGKNLEWMGLINPYKGVSTYNQKFKDKATLTVDKSSSTAYMELLSLTSEDSAVYYCARSGYYGDSDWYFDVWGAGTTVTVSSGGGGSGGGGSGGGGSDIQMTQTTSSLSASLGDRVTISCRASQDIRNYLNWYQQKPDGTVKLLIYYTSRLHSGVPSKFSGSGSGTDYSLTISNLEQEDIATYFCQQGNTLPWTFAGGTKLEIKGGGGSQVQLVQSGAEVKKPGASVKVSCKVSGPKLYEVSMHWVRQAPGKGLEWMGGFDPEDGETIYAQKFQGRVTMTEDTSTDTAYMELSSLRSEDTAVYYCATDQGSSWGFYWGQGTLVTVSS
# notes: as m68
# B9: AMC1 scDb (bispecific antibody)
# chain: DIRLTQSPSSLSASVGDRVTMTCRASQTVATYVNWYQQKPGRAPKLLMYVTSIRQSEVPSRFSGDGFGTDFTLTINPLQPDDFATYYCQQAYSTPVTFGQGTKLEIKGGGGSEVQLQQSGPELVKPGASMKISCKASGYSFTGYTMNWVKQSHGKNLEWMGLINPYKGVSTYNQKFKDKATLTVDKSSSTAYMELLSLTSEDSAVYYCARSGYYGDSDWYFDVWGAGTTVTVSSGGGGSGGGGSGGGGSDIQMTQTTSSLSASLGDRVTISCRASQDIRNYLNWYQQKPDGTVKLLIYYTSRLHSGVPSKFSGSGSGTDYSLTISNLEQEDIATYFCQQGNTLPWTFAGGTKLEIKGGGGSQVQLVQSGAEVKKPGASVKVSCKVSGPKLYEVSMHWVRQAPGKGLEWMGGFDPEDGETIYAQKFQGRVTMTEDTSTDTAYMELSSLRSEDTAVYYCATDQGASWGFYWGQGTLVTVSS
# notes: as m68
# B10: AMC6 scDb (bispecific antibody)
# chain: DIRLTQSPSSLSASVGDRVTMTCRASQTVATYVNWYQQKPGRAPKLLMYVTSIRQSEVPSRFSGDGFGTDFTLTINPLQPDDFATYYCQQAYSTPVTFGQGTKLEIKGGGGSEVQLQQSGPELVKPGASMKISCKASGYSFTGYTMNWVKQSHGKNLEWMGLINPYKGVSTYNQKFKDKATLTVDKSSSTAYMELLSLTSEDSAVYYCARSGYYGDSDWYFDVWGAGTTVTVSSGGGGSGGGGSGGGGSDIQMTQTTSSLSASLGDRVTISCRASQDIRNYLNWYQQKPDGTVKLLIYYTSRLHSGVPSKFSGSGSGTDYSLTISNLEQEDIATYFCQQGNTLPWTFAGGTKLEIKGGGGSQVQLVQSGAEVKKPGASVKVSCKVSGPKLYEVSMHWVRQAPGKGLEWMGGFDPEDGETIYAQKFQGRVTMTEDTSTDTAYMELSSLRSEDTAVYYCATDQGSSWGFYWGQGTLVTVSS
# notes: as m68
# Columns and labels:
# [1] = molecular target: T1, HLA-A*02:01/MAGE-A4^230-239 displayed on cells (MAGE-A4^230-239 pulsed T2 cells; NCI-H1703, A375, THP1, … (human, UniProt P04439 25-365 at identity 0.94); P61769 21-119); test: cell-based or functional assay
# [2] = molecular target: T2, HLA-A*02:01/MAGE-A4^230-239, soluble recombinant biotinylated pHLA (human, UniProt P04439 25-299 at identity 0.94); P61769 21-119, biotinylated); test: ELISA, soluble biotinylated pHLA on neutravidin, scDb, protL-HRP
# T2 construct: Empty biotinylated HLA-A2 monomers (Tetramer Shop) loaded with synthetic peptide; also called MAGE-A4 pMHC; MAGE-A4-pHLA
# Procedure: ELISA plates were coated with 5 μg/mL NeutrAvidin in PBS and incubated 16 h/4° C. (step (a)) and blocked with 5% skim milk powder in PBST for 1 h/room temperature (RT) (step (c)). […] Bound phage particles were detected with an anti-Fd antibody (anti-M13-HRP (Amersham Biosciences)), whereas bound IgG1 and scDb was detected with HRP conjugated protein L (Genscript) (step (i)). […] Plates were developed with TMB solution and read at 450 nm using a microplate reader (step (k)). Between each layer, the plates were washed 3× with PBST (steps (b), (d), (f), (h), and (j)).
# [3] = molecular target: T1, HLA-A*02:01/MAGE-A4^230-239 displayed …; test: cell-based or functional assay; remark: listed apart in the source
binder,measurement,setting,value
B1,"EC50 vs. NCI-H1703 (pM), T-cell specific killing",[1],6.4 pM
same,EC50,[2],0.36 nM
same,IFNγ EC50 vs. target positive cells (pM),[3],11.8 pM
B2,EC50,[2],0.35 nM
same,IFNγ EC50 vs. target positive cells (pM),[3],7.3 pM
B3,EC50,[2],0.36 nM
same,IFNγ EC50 vs. target positive cells (pM),[3],9.2 pM
B4,EC50,[2],0.32 nM
same,IFNγ EC50 vs. target positive cells (pM),[3],8 pM
B5,EC50,[2],0.41 nM
same,IFNγ EC50 vs. target positive cells (pM),[3],8.5 pM
B6,EC50,[2],0.46 nM
same,IFNγ EC50 vs. target positive cells (pM),[3],1.7 pM
B7,EC50,[2],0.25 nM
same,IFNγ EC50 vs. target positive cells (pM),[3],6.9 pM
B8,EC50,[2],0.47 nM
same,IFNγ EC50 vs. target positive cells (pM),[3],8.2 pM
B9,EC50,[2],0.45 nM
same,IFNγ EC50 vs. target positive cells (pM),[3],3.6 pM
B10,EC50,[2],0.61 nM
same,IFNγ EC50 vs. target positive cells (pM),[3],8.6 pM
